This note sets out measurements from paper PMC12474298 (2025).

Experiment in all cases: FP
Assay [1] concerns the target human importin α1 lacking the importin-β binding domain (hIMPα1ΔIBB) (human).
In assay [2] the target is IMPα1 major site mutant D192K (human).
In assay [3] the target is IMPα1 minor site mutant E396R (human).

Where no end group is shown, it is not given here.

B1: HaHV1 UL36h NLS peptide (residues 1491-1500), FITC/Ahx-labelled (peptide)
peptide: ETKKRRRILE
modifications: not fully specified (N-terminus); also: FITC/Ahx-labelled, position not given here
In general, Kd refers to the constant that tells how readily two partners part at equilibrium. As for B1, the results for the Kd in assay [1], in assay [2] and in assay [3] were 0.362 µM, 3.55 µM and 1.76 µM, respectively.
